From patent US20180155451A1 (published 2018)

T1: FcγRIIb (human, UniProt P31994 43-217)
T1 construct: extracellular domain; also called FcgRIIb; 2b
T1 sequence (looked up): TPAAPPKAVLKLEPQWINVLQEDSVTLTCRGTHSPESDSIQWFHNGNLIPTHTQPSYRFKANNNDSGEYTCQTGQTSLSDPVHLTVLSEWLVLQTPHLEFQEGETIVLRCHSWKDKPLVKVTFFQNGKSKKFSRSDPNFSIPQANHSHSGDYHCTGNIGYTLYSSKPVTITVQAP

T2: FcγRIIa R (FcγRIIa, allotype R: Arg at position 131) extracellular domain with C-terminal His tag (human, UniProt P12318 34-217)
T2 construct: extracellular domain; also called FcgRIIa R; 2aR; not shown: His tag at the C terminus
T2 sequence (looked up): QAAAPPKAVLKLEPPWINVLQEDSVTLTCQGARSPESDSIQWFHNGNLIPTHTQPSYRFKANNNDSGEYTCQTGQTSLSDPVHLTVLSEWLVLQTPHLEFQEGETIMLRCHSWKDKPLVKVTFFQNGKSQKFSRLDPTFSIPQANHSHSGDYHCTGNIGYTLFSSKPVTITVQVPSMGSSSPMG

T3: FcγRIIb extracellular domain with C-terminal His tag (human, UniProt P31994 43-217)
T3 construct: extracellular domain; also called FcgRIIb; 2b; not shown: His tag at the C terminus
T3 sequence (looked up): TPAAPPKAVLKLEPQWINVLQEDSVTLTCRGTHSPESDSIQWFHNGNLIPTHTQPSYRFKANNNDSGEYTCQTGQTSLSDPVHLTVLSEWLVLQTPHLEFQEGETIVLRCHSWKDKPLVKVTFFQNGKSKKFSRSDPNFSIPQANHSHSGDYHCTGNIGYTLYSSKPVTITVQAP


Columns and labels:
[1] = molecular target: T4, FcγRIa (human, UniProt P12314 16-292); assay: SPR (Biacore), relative to GpH7-A5/GpH7-B3/GpL16-k0 = 100
T4 construct: extracellular domain; also called FcgRI; FcgRIa
Description: (§1) The heterodimerized antibodies He Abs in which one of the H chains was introduced with an alteration were assayed for their binding activities to each activating FcγR and inhibitory FcγR according to the method described in Example 4. […] The activating FcγRs in FIGS. 26, 27, 28, and 29 are FcγRIa, FcγRIIa (R), FcγRIIa (H), and FcγRIIIa, respectively.
(§2) Analysis of interaction between objective antibody and the FcγR was carried out using Biacore T100 (GE Healthcare). HBS-EP+ (GE Healthcare) was used as the running buffer, and the measurement temperature was set to 25° C. Chips produced by immobilizing the antigen peptide by the amine coupling method to a Series S Sencor Chip CM5 (GE Healthcare), or alternatively, chips produced by allowing preliminarily biotinylated antigen peptides to interact with and immobilize onto a Series S Sensor Chip SA (certified) (GE Healthcare) were used. Antibodies of interest were captured onto an antigen peptide-immobilized chip, and allowed to interact to each FcγR diluted with running buffer. To regenerate and repeatedly use the chip, the antibodies captured on the chip were washed off by reacting 10 mM glycine-HCl, pH 1.5.

[2] = molecular target: T1, FcγRIIb; assay: as above
Description: as §1, §2

[3] = molecular target: T2, FcγRIIa R (FcγRIIa, allotype R: Arg at …); assay: SPR Biacore, antibody captured, FcgR analyte; vs HeCon Ab GpH7-A5/GpH7-B3/GpL16-k0 = 100
Description: as §1, §2

[4] = molecular target: T3, FcγRIIb extracellular domain with …; assay: as above
Description: as §1, §2

T4 sequence (P12314 16-292): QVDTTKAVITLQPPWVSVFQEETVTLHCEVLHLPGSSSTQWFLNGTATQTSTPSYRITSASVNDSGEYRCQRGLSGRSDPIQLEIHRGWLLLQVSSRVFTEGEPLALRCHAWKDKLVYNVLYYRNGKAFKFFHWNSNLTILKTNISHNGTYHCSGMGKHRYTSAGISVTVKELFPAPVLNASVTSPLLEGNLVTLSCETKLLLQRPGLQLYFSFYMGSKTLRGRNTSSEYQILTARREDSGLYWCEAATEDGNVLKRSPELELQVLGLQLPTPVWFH

| Binder | He/Con_1a (Ia binding) [1] | He/Con_2b (IIb binding) [2] | He/Con_2aR [3] [control = 100] | He/Con_2b [4] [control = 100] |
| --- | --- | --- | --- | --- |
| GpH7-A5/GpH7-B3 variant S337_12R/GpL16-k0 (antibody, human IgG1, kappa, heterodimerized IgG1, one H chain mutated; also called He Ab) heavy 1: not shown heavy 2: not shown light: DIVMTQSPLSLPVTPGEPASISCQASESLVHSNRNTYLHWYLQKPGQSPQLLIYKVSNRFSGVPDRFSGSGSGTDFTLKISRVEAEDVGVYYCSQNTHVPPTFGQGTKVEIERTVAAPSVFIFPPSDEQLKSGTASVVCLLNNFYPREAKVQWKVDNALQSGNSQESVTEQDSKDSTYSLSSTLTLSKADYEKHKVYACEVTHQGLSSPVTKSFNRGEC | 106 relative (control = 100) | 99.5 relative (control = 100) | – | – |
| GpH7-A5/GpH7-B3 variant S337_19Q/GpL16-k0 (antibody, human IgG1, kappa, heterodimerized IgG1, one H chain mutated; also called He Ab) heavy 1: not shown heavy 2: not shown light: DIVMTQSPLSLPVTPGEPASISCQASESLVHSNRNTYLHWYLQKPGQSPQLLIYKVSNRFSGVPDRFSGSGSGTDFTLKISRVEAEDVGVYYCSQNTHVPPTFGQGTKVEIERTVAAPSVFIFPPSDEQLKSGTASVVCLLNNFYPREAKVQWKVDNALQSGNSQESVTEQDSKDSTYSLSSTLTLSKADYEKHKVYACEVTHQGLSSPVTKSFNRGEC | 105 relative (control = 100) | 99.7 relative (control = 100) | – | – |
| GpH7-A5/GpH7-B3 variant A330_11K/GpL16-k0 (antibody, human IgG1, kappa, He Ab: alteration in the GpH7-B3 H chain only; also called He Ab) heavy 1: not shown heavy 2: not shown light: DIVMTQSPLSLPVTPGEPASISCQASESLVHSNRNTYLHWYLQKPGQSPQLLIYKVSNRFSGVPDRFSGSGSGTDFTLKISRVEAEDVGVYYCSQNTHVPPTFGQGTKVEIERTVAAPSVFIFPPSDEQLKSGTASVVCLLNNFYPREAKVQWKVDNALQSGNSQESVTEQDSKDSTYSLSSTLTLSKADYEKHKVYACEVTHQGLSSPVTKSFNRGEC | – | – | 110 | 95 |
| GpH7-A5/GpH7-B3 variant A330_12R/GpL16-k0 (antibody, human IgG1, kappa, He Ab: alteration in the GpH7-B3 H chain only; also called He Ab) heavy 1: not shown heavy 2: not shown light: DIVMTQSPLSLPVTPGEPASISCQASESLVHSNRNTYLHWYLQKPGQSPQLLIYKVSNRFSGVPDRFSGSGSGTDFTLKISRVEAEDVGVYYCSQNTHVPPTFGQGTKVEIERTVAAPSVFIFPPSDEQLKSGTASVVCLLNNFYPREAKVQWKVDNALQSGNSQESVTEQDSKDSTYSLSSTLTLSKADYEKHKVYACEVTHQGLSSPVTKSFNRGEC | – | – | 104 | 84.8 |
| GpH7-A5/GpH7-B3 variant A330_15Y/GpL16-k0 (antibody, human IgG1, kappa, He Ab: alteration in the GpH7-B3 H chain only; also called He Ab) heavy 1: not shown heavy 2: not shown light: DIVMTQSPLSLPVTPGEPASISCQASESLVHSNRNTYLHWYLQKPGQSPQLLIYKVSNRFSGVPDRFSGSGSGTDFTLKISRVEAEDVGVYYCSQNTHVPPTFGQGTKVEIERTVAAPSVFIFPPSDEQLKSGTASVVCLLNNFYPREAKVQWKVDNALQSGNSQESVTEQDSKDSTYSLSSTLTLSKADYEKHKVYACEVTHQGLSSPVTKSFNRGEC | – | – | 102 | 95 |
| GpH7-A5/GpH7-B3 variant A330_19Q/GpL16-k0 (antibody, human IgG1, kappa, He Ab: alteration in the GpH7-B3 H chain only; also called He Ab) heavy 1: not shown heavy 2: not shown light: DIVMTQSPLSLPVTPGEPASISCQASESLVHSNRNTYLHWYLQKPGQSPQLLIYKVSNRFSGVPDRFSGSGSGTDFTLKISRVEAEDVGVYYCSQNTHVPPTFGQGTKVEIERTVAAPSVFIFPPSDEQLKSGTASVVCLLNNFYPREAKVQWKVDNALQSGNSQESVTEQDSKDSTYSLSSTLTLSKADYEKHKVYACEVTHQGLSSPVTKSFNRGEC | – | – | 104 | 90.8 |
| GpH7-A5/GpH7-B3 variant E333_04F/GpL16-k0 (antibody, human IgG1, kappa, He Ab: alteration in the GpH7-B3 H chain only; also called He Ab) heavy 1: not shown heavy 2: not shown light: DIVMTQSPLSLPVTPGEPASISCQASESLVHSNRNTYLHWYLQKPGQSPQLLIYKVSNRFSGVPDRFSGSGSGTDFTLKISRVEAEDVGVYYCSQNTHVPPTFGQGTKVEIERTVAAPSVFIFPPSDEQLKSGTASVVCLLNNFYPREAKVQWKVDNALQSGNSQESVTEQDSKDSTYSLSSTLTLSKADYEKHKVYACEVTHQGLSSPVTKSFNRGEC | – | – | 102 | 94.6 |
| GpH7-A5/GpH7-B3 variant E333_05P/GpL16-k0 (antibody, human IgG1, kappa, He Ab: alteration in the GpH7-B3 H chain only; also called He Ab) heavy 1: not shown heavy 2: not shown light: DIVMTQSPLSLPVTPGEPASISCQASESLVHSNRNTYLHWYLQKPGQSPQLLIYKVSNRFSGVPDRFSGSGSGTDFTLKISRVEAEDVGVYYCSQNTHVPPTFGQGTKVEIERTVAAPSVFIFPPSDEQLKSGTASVVCLLNNFYPREAKVQWKVDNALQSGNSQESVTEQDSKDSTYSLSSTLTLSKADYEKHKVYACEVTHQGLSSPVTKSFNRGEC | – | – | 105 | 97.7 |
